# From the supplement of paper PMC9112550, “Optimization of the antimicrobial peptide Bac7 by deep mutational scanning” (BMC Biology, 2022)
# Tested on: Escherichia coli TOP10
# Experiment: shrunken log2 fold change of peptide-encoding DNA abundance (4.5 h post-induction vs induction); higher = less antimicrobial activity (less host growth inhibition)
# Details: time post-induction: 4.5 h; library: site-saturation at positions 5, 18, 19, 20
# 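Further: peptides expressed intracellularly from a pBAD plasmid library in pooled LB shake-flask culture, induced with 0.3% L-arabinose, DNA abundance read by NGS, three biological replicates, DESeq2 with apeglm shrinkage.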
row,Sequence,shrunken log2 fold change
1,RRIRDRPPRLPRPRPRPIVWPRP,-0.0132
2,RRIRFRPPRLPRPRPRPFSEPRP,-0.0573
3,RRIRYRPPRLPRPRPRPSQFPRP,-0.257
4,RRIRARPPRLPRPRPRPSDCPRP,-0.164
5,RRIRLRPPRLPRPRPRPQGYPRP,-0.141
6,RRIRTRPPRLPRPRPRPAYHPRP,-0.0827
7,RRIRTRPPRLPRPRPRPQWFPRP,-0.0925
8,RRIRVRPPRLPRPRPRPQAHPRP,-0.209
9,RRIRVRPPRLPRPRPRPTCAPRP,0.579
10,RRIRDRPPRLPRPRPRPWHMPRP,-0.301
11,RRIRFRPPRLPRPRPRPGTNPRP,-0.254
12,RRIRKRPPRLPRPRPRPQHEPRP,0.198
13,RRIRARPPRLPRPRPRPHNTPRP,-0.235
14,RRIRRRPPRLPRPRPRPVCWPRP,0.586
15,RRIRIRPPRLPRPRPRPEHYPRP,-0.295
16,RRIRLRPPRLPRPRPRPWCGPRP,-0.0859
17,RRIRPRPPRLPRPRPRPIIRPRP,-0.168
18,RRIRPRPPRLPRPRPRPEMGPRP,0.268
19,RRIRKRPPRLPRPRPRPQHMPRP,0.0396
20,RRIRKRPPRLPRPRPRPLCYPRP,-0.213
21,RRIRARPPRLPRPRPRPPKHPRP,0.472
22,RRIRNRPPRLPRPRPRPPHFPRP,0.0188
23,RRIRDRPPRLPRPRPRPQPKPRP,0.026
24,RRIRSRPPRLPRPRPRPWCAPRP,0.0451
25,RRIRDRPPRLPRPRPRPVPPPRP,0.453

row,Sequence,shrunken log2 fold change
1,RRIRERPPRLPRPRPRPQMWPRP,-0.0958
2,RRIRRRPPRLPRPRPRPYLWPRP,-0.439
3,RRIRTRPPRLPRPRPRPQEMPRP,-0.0617
4,RRIRGRPPRLPRPRPRPRSAPRP,1.31
5,RRIRARPPRLPRPRPRPQQRPRP,0.199
6,RRIRWRPPRLPRPRPRPSNGPRP,-0.19
7,RRIRPRPPRLPRPRPRPLGEPRP,-0.155
8,RRIRARPPRLPRPRPRPVHDPRP,0.146
9,RRIRNRPPRLPRPRPRPTRCPRP,0.15
10,RRIRMRPPRLPRPRPRPTRHPRP,0.889
11,RRIRDRPPRLPRPRPRPMEDPRP,-0.0288
12,RRIRWRPPRLPRPRPRPMYLPRP,-0.507
13,RRIRFRPPRLPRPRPRPVFYPRP,-0.536
14,RRIRERPPRLPRPRPRPVYLPRP,-0.267
15,RRIRRRPPRLPRPRPRPVCIPRP,0.0361
16,RRIRCRPPRLPRPRPRPMVPPRP,-0.354
17,RRIRLRPPRLPRPRPRPYHGPRP,-0.278
18,RRIRFRPPRLPRPRPRPWGGPRP,0.162
19,RRIRHRPPRLPRPRPRPSDEPRP,-0.000726
20,RRIRQRPPRLPRPRPRPYYQPRP,-0.284
21,RRIRNRPPRLPRPRPRPDNAPRP,-0.0737
22,RRIRMRPPRLPRPRPRPISQPRP,-0.29
23,RRIRFRPPRLPRPRPRPDNMPRP,-0.748
24,RRIRTRPPRLPRPRPRPRIQPRP,0.214
25,RRIRRRPPRLPRPRPRPDFHPRP,-0.111

row,Sequence,shrunken log2 fold change
1,RRIRLRPPRLPRPRPRPNTVPRP,-0.0627
2,RRIRDRPPRLPRPRPRPFYPPRP,-0.109
3,RRIRTRPPRLPRPRPRPLVHPRP,-0.282
4,RRIRDRPPRLPRPRPRPFCMPRP,0.00343
5,RRIRHRPPRLPRPRPRPDQPPRP,0.183
6,RRIRMRPPRLPRPRPRPVGGPRP,0.961
7,RRIRIRPPRLPRPRPRPFYHPRP,-0.594
8,RRIRERPPRLPRPRPRPLDKPRP,-0.114
9,RRIRYRPPRLPRPRPRPVAQPRP,0.128
10,RRIRQRPPRLPRPRPRPQHTPRP,-0.69
11,RRIRERPPRLPRPRPRPAVEPRP,0.108
12,RRIRLRPPRLPRPRPRPDVVPRP,0.0387
13,RRIRQRPPRLPRPRPRPIYSPRP,-0.1
14,RRIRNRPPRLPRPRPRPCSMPRP,-0.132
15,RRIRKRPPRLPRPRPRPEWYPRP,-0.204
16,RRIRERPPRLPRPRPRPVRSPRP,0.0119
17,RRIRLRPPRLPRPRPRPAHHPRP,0.0653
18,RRIRTRPPRLPRPRPRPYHIPRP,-1.06
19,RRIRERPPRLPRPRPRPAKCPRP,-0.237
20,RRIRNRPPRLPRPRPRPQDEPRP,0.00847
21,RRIRVRPPRLPRPRPRPMPFPRP,-0.259
22,RRIRKRPPRLPRPRPRPIDPPRP,-0.0828
23,RRIRMRPPRLPRPRPRPVPAPRP,1.11
24,RRIRKRPPRLPRPRPRPIPEPRP,0.163
25,RRIRKRPPRLPRPRPRPLYEPRP,0.0468

row,Sequence,shrunken log2 fold change
1,RRIRARPPRLPRPRPRPEQFPRP,0.218
2,RRIRYRPPRLPRPRPRPWLDPRP,-0.225
3,RRIRVRPPRLPRPRPRPVTFPRP,-0.467
4,RRIRMRPPRLPRPRPRPQRLPRP,0.294
5,RRIRFRPPRLPRPRPRPNRYPRP,-0.319
6,RRIRCRPPRLPRPRPRPFDVPRP,-0.479
7,RRIRCRPPRLPRPRPRPHEYPRP,-0.253
8,RRIRWRPPRLPRPRPRPLRKPRP,0.944
9,RRIRPRPPRLPRPRPRPHIGPRP,0.0387
10,RRIRYRPPRLPRPRPRPKSCPRP,-0.0262
11,RRIRERPPRLPRPRPRPKVVPRP,-0.0857
12,RRIRQRPPRLPRPRPRPQWQPRP,0.16
13,RRIRGRPPRLPRPRPRPISWPRP,-0.0765
14,RRIRNRPPRLPRPRPRPEQMPRP,-0.0261
15,RRIRIRPPRLPRPRPRPGGFPRP,0.179
16,RRIRGRPPRLPRPRPRPHSNPRP,0.117
17,RRIRIRPPRLPRPRPRPNRPPRP,-0.212
18,RRIRYRPPRLPRPRPRPACCPRP,-0.405
19,RRIRMRPPRLPRPRPRPMDFPRP,-0.00448
20,RRIRNRPPRLPRPRPRPFYDPRP,0.18
21,RRIRERPPRLPRPRPRPGCQPRP,0.0111
22,RRIRKRPPRLPRPRPRPRNEPRP,0.0551
23,RRIRWRPPRLPRPRPRPRSVPRP,0.247
24,RRIRCRPPRLPRPRPRPIKYPRP,-0.608
25,RRIRTRPPRLPRPRPRPCWLPRP,-0.0724

row,Sequence,shrunken log2 fold change
1,RRIRNRPPRLPRPRPRPCKTPRP,-0.129
2,RRIRYRPPRLPRPRPRPKYYPRP,-1.43
3,RRIRLRPPRLPRPRPRPKKEPRP,-0.0307
4,RRIRKRPPRLPRPRPRPEETPRP,2.19
5,RRIRTRPPRLPRPRPRPLWPPRP,0.216
6,RRIRIRPPRLPRPRPRPQDTPRP,-0.048
7,RRIRTRPPRLPRPRPRPNHLPRP,-0.15
8,RRIRGRPPRLPRPRPRPHVGPRP,0.0375
9,RRIRYRPPRLPRPRPRPNSQPRP,-0.85
10,RRIRHRPPRLPRPRPRPHFWPRP,-0.0607
11,RRIRLRPPRLPRPRPRPWFNPRP,-0.388
12,RRIRWRPPRLPRPRPRPNGAPRP,0.161
13,RRIRLRPPRLPRPRPRPQWSPRP,-0.0199
14,RRIRIRPPRLPRPRPRPNNSPRP,-0.655
15,RRIRERPPRLPRPRPRPAQNPRP,0.269
16,RRIRQRPPRLPRPRPRPMWIPRP,-0.146
17,RRIRCRPPRLPRPRPRPVCPPRP,0.0356
18,RRIRQRPPRLPRPRPRPVNRPRP,0.00086
19,RRIRFRPPRLPRPRPRPYAKPRP,-0.552
20,RRIRMRPPRLPRPRPRPIWKPRP,0.00523
21,RRIRKRPPRLPRPRPRPNTCPRP,0.0343
22,RRIRLRPPRLPRPRPRPGMMPRP,0.0343
23,RRIRFRPPRLPRPRPRPCGLPRP,-0.00916
24,RRIRHRPPRLPRPRPRPVIFPRP,-0.395
25,RRIRDRPPRLPRPRPRPPQAPRP,0.268
